In US20240279288A1, “APPLICATION OF PLANT JAZ PROTEINS AND DERIVED POLYPEPTIDES IN PREVENTION AND TREATMENT OF HUMAN AND ANIMAL TUMORS” (ANYANG INSTITUTE OF SINO-COTTON INDUSTRY INNOVATION, priority 2021, published 2024):

B1: GhJAZ1 after deletion of Jas domain: GhJAZ1 mutant with Jas domain deleted, protein sequence SEQ ID No. 87 (protein)
chain: MSSCSESTAMKPARSPEKPSFAQTCNLLSQYLKEKGSFGDLSLGMTCNVEANGTPVVPPPTMNLFPLNDKSDDVCGRNGGNPKNLTSMDLFPQQAGLASKDDSPNKLEPQTAPMTIFYGGQVIVFNDFPANKAKEIMLLASNSSSQSNNSFNPIPFTSSIARSPIESSIGVPPTSKPVHPAQRAVPGNNSAAAPSLSGDNKSWLGLAAQSP
B2: GhJAZ9: cotton JAZ9 protein, sequence SEQ ID No. 2, highest homology to AtJAZ9 (protein)
chain: MERDFLGLNSNEPLAVVKDDVNTDKYKQIGFTKSSGIQWPFSNKVFAVPQLMNFNFAQGDKTKKTGYDSKVSPLFMPISTMDASELQKSFNHNWNGGGHFSLTDSHVQHNTNMFPASNQTISVSGSNPFVKNHFTTTGQNFPANTIKPQFLGGVPVTTPHSVLPTLGTVGGSVEPCAQTSGSPAQLTIFYAGEVNVFDDITPEKAQAIMFLAGNGSSMASNSAYPKPPVQTPILKPVQVDSVPANQLINTQLSFGMPSPLPVSSHAGMQSWSGSTSTEEQIICKASVPPTPSTPISKLESPNLVNTMGSDAATGMMPSVPQARKASLARFLEKRKGRIMSTASPYNLISKKSLDYATTMESNA
B3: GhJAZ1 after deletion of ZIM domain: GhJAZ1 mutant with ZIM domain deleted, protein sequence SEQ ID No. 85 (protein)
chain: MSSCSESTAMKPARSPEKPSFAQTCNLLSQYLKEKGSFGDLSLGMTCNVEANGTPVVPPPTMNLFPLNDKSDDVCGRNGGNPKNLTSMDLFPQQAGLASKDDSPNKLEPQTASSSQSNNSFNPIPFTSSIARSPIESSIGVPPTSKPVHPAQRAVPGDLPIARRASLHRFLEKRKDRITAKAPYQINNSAAAPSLSGDNKSWLGLAAQSP

Assays:
Type in all cases: binding, cotton
GhTPL = test: Yeast two hybrid with GhTPL
Sequence of GhTPL (as listed by the source): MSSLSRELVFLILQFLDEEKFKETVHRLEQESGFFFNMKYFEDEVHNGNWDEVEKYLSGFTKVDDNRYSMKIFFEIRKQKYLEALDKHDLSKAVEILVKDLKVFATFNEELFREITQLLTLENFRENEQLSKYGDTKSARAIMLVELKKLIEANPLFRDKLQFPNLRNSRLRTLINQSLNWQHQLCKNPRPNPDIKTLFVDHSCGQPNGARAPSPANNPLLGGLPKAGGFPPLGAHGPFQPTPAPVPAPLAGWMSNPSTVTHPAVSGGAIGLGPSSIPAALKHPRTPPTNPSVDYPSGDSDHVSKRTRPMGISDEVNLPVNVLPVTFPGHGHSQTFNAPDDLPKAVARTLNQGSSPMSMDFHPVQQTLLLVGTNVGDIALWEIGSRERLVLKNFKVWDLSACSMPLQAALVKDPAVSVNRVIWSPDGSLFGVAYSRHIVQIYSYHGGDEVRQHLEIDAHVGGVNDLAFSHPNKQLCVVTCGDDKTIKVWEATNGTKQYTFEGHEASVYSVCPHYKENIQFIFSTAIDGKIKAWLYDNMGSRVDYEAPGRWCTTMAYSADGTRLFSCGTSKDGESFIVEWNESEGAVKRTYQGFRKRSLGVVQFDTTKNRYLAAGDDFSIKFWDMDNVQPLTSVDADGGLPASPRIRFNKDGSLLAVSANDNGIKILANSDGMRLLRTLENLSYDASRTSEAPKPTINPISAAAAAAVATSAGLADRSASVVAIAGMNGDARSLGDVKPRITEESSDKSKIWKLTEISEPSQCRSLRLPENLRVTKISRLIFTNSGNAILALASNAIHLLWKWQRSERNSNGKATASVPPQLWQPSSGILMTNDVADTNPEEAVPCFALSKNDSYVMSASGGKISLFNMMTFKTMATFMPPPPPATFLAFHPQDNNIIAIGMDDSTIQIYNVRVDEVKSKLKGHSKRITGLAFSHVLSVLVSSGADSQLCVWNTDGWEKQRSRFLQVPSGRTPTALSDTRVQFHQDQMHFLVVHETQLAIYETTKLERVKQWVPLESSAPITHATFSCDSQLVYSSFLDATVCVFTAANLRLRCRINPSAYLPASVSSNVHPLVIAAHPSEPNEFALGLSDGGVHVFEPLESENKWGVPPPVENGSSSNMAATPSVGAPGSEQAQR
Experimental: (§1) The study on Arabidopsis had shown that the inhibition of JAZ protein on JA signaling was mainly achieved by inhibiting the transcription factor function of MYC, which had been experimentally verified by us in cotton. Based on the phylogenetic tree of Arabidopsis and cotton JAZs, we screened 6 cotton JAZs (GhJAZ1, GhJAZ7, GhJAZ9, GhJAZ10, GhJAZ11 and GhJAZ31), which were analyzed with GhMYC2, GhNINJA, GhTPL, GhHDA6, and GhCOI1 for yeast two hybrid. The amino acid sequence of GhJAZ1 was set forth in SEQ ID No. 4, and the corresponding encoding gene sequence was set forth in SEQ ID No. 39; the amino acid sequence of GhJAZ7 was set forth in SEQ ID No. 7, and the corresponding encoding gene sequence was set forth in SEQ ID No. 42; the amino acid sequence of GhJAZ9 was set forth in SEQ ID No. 2, and the corresponding encoding gene sequence was set forth in SEQ ID No. 37; the amino acid sequence of GhJAZ10 was set forth in SEQ ID No. 3, and the corresponding encoding gene sequence was set forth in SEQ ID No. 38; the amino acid sequence of GhJAZ11 was set forth in SEQ ID No. 5, and the corresponding encoding gene sequence was set forth in SEQ ID No. 40; and the amino acid sequence of GhJAZ31 was set forth in SEQ ID No. 9, and the corresponding encoding gene sequence was set forth in SEQ ID No. 44. The amino acid sequence of GhMYC2 was set forth in SEQ ID No. 71, and the corresponding encoding gene sequence was set forth in SEQ ID No. 72; the amino acid sequence of GhNINJA was set forth in SEQ ID No. 73, and the corresponding encoding gene sequence was set forth in SEQ ID No. 74; the amino acid sequence of GhTPL was set forth in SEQ ID No. 75, and the corresponding encoding gene sequence was set forth in SEQ ID No. 76; the amino acid sequence of GhHDA6 was set forth in SEQ ID No. 77, and the corresponding encoding gene sequence was set forth in SEQ ID No. 78; and the amino acid sequence of GhCOI1 was set forth in SEQ ID No. 79, and the corresponding encoding gene sequence was set forth in SEQ ID No. 80. […]

GhCOI1 = test: Yeast two hybrid with GhCOI1; conditions: in the presence of JA-Ile
Sequence of GhCOI1 (as listed by the source): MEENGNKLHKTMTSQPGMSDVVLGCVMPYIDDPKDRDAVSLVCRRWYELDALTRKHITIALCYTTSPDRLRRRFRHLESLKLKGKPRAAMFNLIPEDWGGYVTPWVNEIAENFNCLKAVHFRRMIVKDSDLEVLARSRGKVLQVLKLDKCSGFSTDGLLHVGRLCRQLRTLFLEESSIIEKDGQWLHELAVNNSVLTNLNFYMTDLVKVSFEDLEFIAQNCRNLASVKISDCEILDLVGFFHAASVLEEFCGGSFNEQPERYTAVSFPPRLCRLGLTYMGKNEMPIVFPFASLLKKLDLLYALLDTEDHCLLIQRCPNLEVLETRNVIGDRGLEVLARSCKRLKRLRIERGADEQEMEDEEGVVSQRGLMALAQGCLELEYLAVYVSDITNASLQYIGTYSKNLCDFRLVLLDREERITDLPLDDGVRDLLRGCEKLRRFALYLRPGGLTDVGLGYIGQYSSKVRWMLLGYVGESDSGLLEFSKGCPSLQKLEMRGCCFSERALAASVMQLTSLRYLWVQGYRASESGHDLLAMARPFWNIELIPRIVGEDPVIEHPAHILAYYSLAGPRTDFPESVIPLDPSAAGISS
Experimental: as §1

GhMYC2 [1] = test: Yeast two hybrid with GhMYC2
Sequence of GhMYC2 (as listed by the source): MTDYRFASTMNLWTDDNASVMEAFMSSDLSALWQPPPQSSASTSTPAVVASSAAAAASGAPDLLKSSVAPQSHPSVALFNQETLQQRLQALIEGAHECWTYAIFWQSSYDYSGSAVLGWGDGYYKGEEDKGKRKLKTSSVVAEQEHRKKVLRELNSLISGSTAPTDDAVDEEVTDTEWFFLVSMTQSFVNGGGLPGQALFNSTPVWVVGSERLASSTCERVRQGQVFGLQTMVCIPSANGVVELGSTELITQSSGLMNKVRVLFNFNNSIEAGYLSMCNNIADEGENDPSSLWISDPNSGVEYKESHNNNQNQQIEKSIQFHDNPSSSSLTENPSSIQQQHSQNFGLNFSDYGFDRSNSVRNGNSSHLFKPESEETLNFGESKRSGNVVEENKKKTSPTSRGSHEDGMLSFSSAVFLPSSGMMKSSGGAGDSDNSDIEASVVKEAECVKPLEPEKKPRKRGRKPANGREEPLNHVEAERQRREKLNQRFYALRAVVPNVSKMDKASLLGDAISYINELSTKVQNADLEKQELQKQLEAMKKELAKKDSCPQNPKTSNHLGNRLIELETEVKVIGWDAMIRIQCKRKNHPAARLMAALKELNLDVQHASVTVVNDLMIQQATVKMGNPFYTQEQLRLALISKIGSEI
Experimental: as §1

GhMYC2 [2] = test: Luciferase experiment in tobacco leaves with GhMYC2; conditions: no fluorescence on the control
From the text: Method of the luciferase experiment: GhJAZ1 (corresponding encoding gene sequence set forth in SEQ ID No. 39) was subcloned into pCAMBIA-CLuc vector (Chen, H., et al. “Firefly Luciferase Complementation Imaging Assay for Protein-Protein Interactions in Plants.” Plant Physiology 146.2(2008):368-376.) between KpnI and SalI cleavage sites, and the transcription factors such as GhMYC2 (corresponding encoding gene sequence set forth in SEQ ID No. 72), GhNINJA (corresponding encoding gene sequence set forth in SEQ ID No. 74), and GhCOI1 (corresponding encoding gene sequence set forth in SEQ ID No. 80) were subcloned into pCAMBIA-NLuc (Chen, H., et al. “Firefly Luciferase Complementation Imaging Assay for Protein-Protein Interactions in Plants.” Plant Physiology 146.2(2008):368-376.) between KpnI and SalI cleavage sites, respectively. […] Luciferase substrates were applied at the infected leaves before taking images and placed in a dark room for at least 6 min to quench fluorescence, followed by observation on the Nightowl-II LB983 instrument, using IndigoBasic software under the luciferase-5 min setting conditions.

GhNINJA = test: Yeast two hybrid with GhNINJA
Sequence of GhNINJA (as listed by the source): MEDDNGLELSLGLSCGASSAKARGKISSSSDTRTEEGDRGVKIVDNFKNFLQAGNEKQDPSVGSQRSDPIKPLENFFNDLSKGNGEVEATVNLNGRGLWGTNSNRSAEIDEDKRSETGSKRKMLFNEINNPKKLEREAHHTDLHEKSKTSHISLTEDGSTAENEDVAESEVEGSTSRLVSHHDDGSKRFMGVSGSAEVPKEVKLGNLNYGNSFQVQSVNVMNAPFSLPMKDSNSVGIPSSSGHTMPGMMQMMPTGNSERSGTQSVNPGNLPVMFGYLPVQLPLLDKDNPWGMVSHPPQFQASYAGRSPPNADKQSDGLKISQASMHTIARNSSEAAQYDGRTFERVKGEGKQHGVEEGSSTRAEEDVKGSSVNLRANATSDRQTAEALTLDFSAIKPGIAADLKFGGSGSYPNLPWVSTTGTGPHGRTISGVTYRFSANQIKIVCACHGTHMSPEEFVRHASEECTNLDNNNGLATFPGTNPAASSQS
Experimental: as §1, with “44.” for “44. The amino acid sequence of GhMYC2 was set forth in SEQ ID No. 71, and the corresponding encoding gene sequence was set forth in SEQ ID No. 72; the amino acid sequence of GhNINJA was set forth in SEQ ID No. 73, and the corresponding encoding gene sequence was set forth in SEQ ID No. 74; the amino acid sequence of GhTPL was set forth in SEQ ID No. 75, and the corresponding encoding gene sequence was set forth in SEQ ID No. 76; the amino acid sequence of GhHDA6 was set forth in SEQ ID No. 77, and the corresponding encoding gene sequence was set forth in SEQ ID No. 78; and the amino acid sequence of GhCOI1 was set forth in SEQ ID No. 79, and the corresponding encoding gene sequence was set forth in SEQ ID No. 80.”

Molecule	interaction with GhTPL (GhTPL)	interaction with GhCOI1 (GhCOI1)	interaction with GhMYC2 (GhMYC2 [1])	fluorescence with GhMYC2 after applying luciferase substrate (GhMYC2 [2])	interaction with GhNINJA (GhNINJA)
B1	significantly weakened	significantly weakened	–	–	–
B2	–	–	weak	weaker fluorescence	–
B3	–	significantly weakened	significantly weakened	–	significantly weakened
